Measurements published in US10544421 (NEW YORK STRUCTURAL BIOLOGY CENTER, dated 2020).

Target: T1, recombinant human acetylcholinesterase (rhAChE), cleaved protein from codon 33 to codon 574 (human, UniProt P22303 33-574)
T1 construct: range 33-574; Expressed in HEK 293-H cells, secreted, tag removed with his-TEV protease; also called purified rhAChE; human AChE
Assay: co-crystal of rhAChE complexed with fasciculin-2, X-ray crystallography (PDB 4EY8)
Description: A crystallization buffer 44 is provided. The preferred crystallization buffer 44 contains 15-21% polyethylene glycol (PEG) 3350 and 0.17-0.21M potassium nitrate. Crystals of rhAChE are grown by sitting drop vapor diffusion at 22° C. against the crystallization buffer 44. See Block 46. Clustered hexagonal rod-shaped crystals (20×20×600 µm) are typically nucleated within 5 days and grow to full size within 3 days. Once the crystals are full size, they are harvested and flash frozen using liquid nitrogen. See Block 48. The harvested crystals 10 can then be cut and subjected to X-ray crystallography and modeling in the traditional manner. See Block 50. Since the rhAChE crystals 10 are not complexed, the X-ray crystallography produces models that more accurately represent AChE in the human brain. Additionally, the active sites that are obfuscated by snake venom in the prior art are open and active.
Referring to FIG. 4 in conjunction with FIG. 1, it will be understood that in order to complex the rhAChE crystals 10, a small volume of the complexing ligand 52 is added to the crystallization buffer 44 to create a modified crystallization buffer 54. Crystals of complexed rhAChE are grown by sitting drop vapor diffusion against the modified crystallization buffer 54. The crystals are then grown, harvested and imaged in the manner previously described.

B1: fasciculin-2 (other)
chain: TMCYSHTTTSRAILTNCGENSCYRKSRRHPPKMVLGRGCGCPPGDDNLEVKCCTSPDKCNY
notes: Used as the complexing ligand in rhAChE crystals; also called snake venom fasciculin-2
Does B1 bind?
Result: binds
